The data set “native gel or EMSA” deals with the molecule itself. Briefly: native gel or EMSA. A general note: A gel shift assay detects complexes by their altered migration in electrophoresis.
Data set [1] deals with the molecule itself. Briefly: in vitro oligomerization assay.

B1: His-Sumo-tagged Cab45 (recombinant) (natural protein, human, UniProt Q9BRK5 37-362, looked up)
chain: RPANHSSTRERVANREENEILPPDHLNGVKLEMDGHLNRGFHQEVFLGKDLGGFDEDAEPRRSRRKLMVIFSKVDVNTDRKISAKEMQRWIMEKTAEHFQEAMEESKTHFRAVDPDGDGHVSWDEYKVKFLASKGHSEKEVADAIRLNEELKVDEETQEVLENLKDRWYQADSPPADLLLTEEEFLSFLHPEHSRGMLRFMVKEIVRDLDQDGDKQLSVPEFISLPVGTVENQQGQDIDDNWVKDRKKEFEELIDSNHDGIVTAEELESYMDPMNEYNALNEAKQMIAVADENQNHHLEPEEVLKYSEFFTGSKLVDYARSVHEEF
As to B1, the binding result in the data set “native gel or EMSA” was “binds”.

B2: ATTO488-labeled recombinant Cab45 (natural protein, human, UniProt Q9BRK5 37-362, looked up)
chain: RPANHSSTRERVANREENEILPPDHLNGVKLEMDGHLNRGFHQEVFLGKDLGGFDEDAEPRRSRRKLMVIFSKVDVNTDRKISAKEMQRWIMEKTAEHFQEAMEESKTHFRAVDPDGDGHVSWDEYKVKFLASKGHSEKEVADAIRLNEELKVDEETQEVLENLKDRWYQADSPPADLLLTEEEFLSFLHPEHSRGMLRFMVKEIVRDLDQDGDKQLSVPEFISLPVGTVENQQGQDIDDNWVKDRKKEFEELIDSNHDGIVTAEELESYMDPMNEYNALNEAKQMIAVADENQNHHLEPEEVLKYSEFFTGSKLVDYARSVHEEF
modifications: ATTO488 (NHS-ATTO488 label)
B2: the binding result in data set [1] is reported as “binds”.
